Experimental data published in patent US20080107662A1.

Tests used:
38C13 IgM Id = test: ELISA control without serum, antigen 38C13 IgM Id
[1] = target: Maltose Binding Protein (MBP) (E. coli) [MBP: P0AEX9]; test: ELISA control without serum, antigen MBP
[2] = target: MBP-ABL (E. coli) [MBP: P0AEX9]; test: ELISA control without serum, antigen MBP-ABL

Secondary Ab only (antibody)
ELISA reading (38C13 IgM Id): 0.09
ELISA reading [1]: 0.055
ELISA reading [2]: 0.052
